Where a chain is given by its changes, count along the chain named.
T1: huCD148 on human endothelial cells (planar migration assay) (human, UniProt Q12913 36-1337)
T1 sequence (looked up): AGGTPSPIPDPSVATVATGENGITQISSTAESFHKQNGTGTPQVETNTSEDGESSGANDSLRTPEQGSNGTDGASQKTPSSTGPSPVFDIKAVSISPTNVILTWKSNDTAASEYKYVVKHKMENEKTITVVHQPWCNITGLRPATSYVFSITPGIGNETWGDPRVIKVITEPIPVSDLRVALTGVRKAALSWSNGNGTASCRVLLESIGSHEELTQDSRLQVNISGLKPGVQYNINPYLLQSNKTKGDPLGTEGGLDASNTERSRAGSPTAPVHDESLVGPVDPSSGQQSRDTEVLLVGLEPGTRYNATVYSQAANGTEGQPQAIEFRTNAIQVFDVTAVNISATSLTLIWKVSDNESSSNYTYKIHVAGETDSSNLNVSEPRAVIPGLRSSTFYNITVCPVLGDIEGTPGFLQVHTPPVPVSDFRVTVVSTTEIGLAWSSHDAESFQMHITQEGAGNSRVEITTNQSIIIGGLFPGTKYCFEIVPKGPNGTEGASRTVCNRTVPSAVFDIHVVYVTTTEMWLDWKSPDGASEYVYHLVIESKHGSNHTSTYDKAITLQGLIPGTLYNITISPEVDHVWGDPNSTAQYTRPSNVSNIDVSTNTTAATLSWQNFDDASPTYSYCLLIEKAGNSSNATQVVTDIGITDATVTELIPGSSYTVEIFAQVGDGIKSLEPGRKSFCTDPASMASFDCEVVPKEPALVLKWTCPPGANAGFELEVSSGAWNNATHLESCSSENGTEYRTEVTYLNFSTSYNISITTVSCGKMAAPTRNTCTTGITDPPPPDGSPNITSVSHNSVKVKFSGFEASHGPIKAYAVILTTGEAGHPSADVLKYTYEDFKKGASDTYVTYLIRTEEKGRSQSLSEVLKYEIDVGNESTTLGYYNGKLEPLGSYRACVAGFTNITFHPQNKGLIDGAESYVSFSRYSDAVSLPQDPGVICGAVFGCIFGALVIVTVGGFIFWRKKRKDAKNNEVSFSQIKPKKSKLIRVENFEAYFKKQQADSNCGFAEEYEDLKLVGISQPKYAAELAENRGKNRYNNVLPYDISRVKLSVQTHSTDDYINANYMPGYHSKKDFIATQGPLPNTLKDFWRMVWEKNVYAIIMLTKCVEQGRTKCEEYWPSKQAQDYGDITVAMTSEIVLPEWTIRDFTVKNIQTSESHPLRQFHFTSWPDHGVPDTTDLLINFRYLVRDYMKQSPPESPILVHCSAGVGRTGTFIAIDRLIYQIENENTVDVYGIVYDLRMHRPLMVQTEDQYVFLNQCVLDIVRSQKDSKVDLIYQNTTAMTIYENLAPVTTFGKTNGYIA

B1: Antibody No. 3 (Ab-3) (antibody, V domains shown)
VH: GVQLVQSGAEVKKPGASVKVSCKASGYTFTSYYMHWVRQAPGQGLEWMGIINPSGGSTSYAQKFQGRVTMTRDTSTSTVYMELSSLRSEDTAVYYCARRVISGAFDIWGQGTMVTVSS
VL: DIQMTQSPSTLSASIGDRVTITCRASEGIYHWLAWYQQKPGKAPKLLIYKASSLASGAPSRFSGSGSGTDFTLTISSLQPDDFATYYCQQYSNYPLTFGGGTKLEIK
B2: Antibody No. 7 (Ab-7) (antibody, V domains shown)
VH: EVQLVQSGAEVKKPGESLKISCKGYGYDFSRDWIAWVRQMPGKGLEWMGIIYPGDSDTRYSPSFEGQVTISADKSISTAYLQWRSLKASDTAMYYCARQRRLGWFDPWGQGTMVTVSS
VL: RSVLTQPPSVSAAPGQKVTISCSGSTSNIGNNYVSWYQQHPGKAPKLMIYDVSKRPSGVPDRFSGSKSGNSASLDISGLQSEDEADYYCAAWDDSLSEFLFGTGTKLTVL
B3: Antibody No. 6 (Ab-6) (antibody, V domains shown)
VH: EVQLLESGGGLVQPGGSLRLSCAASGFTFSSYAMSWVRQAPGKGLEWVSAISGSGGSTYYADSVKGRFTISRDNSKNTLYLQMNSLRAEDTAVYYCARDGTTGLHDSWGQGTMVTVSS
VL: QSVLTQPPSASGTPGQRVTISCSGSSSNVGSNFVYWYQQFPGTAPKLLIYRNNQRPSGVPDRFSGSKSGTSASLAISGLRSEDEADYYCAAWDDTLNGHYVFGGGTKLTVL
B4: Antibody No. 1 (Ab-1) (antibody, V domains shown)
VH: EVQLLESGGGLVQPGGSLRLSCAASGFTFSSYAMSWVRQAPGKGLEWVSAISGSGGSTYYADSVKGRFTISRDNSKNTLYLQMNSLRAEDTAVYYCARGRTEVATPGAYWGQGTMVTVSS
VL: QAVLTQPSSVSGAPGQRVTISCTGSSSNIGAGYDVHWYQQLPGTAPKLLIYGNSNRPSGVPDRFSGSKSGTSASLAVTGLQAEDEADYYCQSYDSSLSDVVFGGGTKLTVL
B5: Antibody No. 4 (Ab-4) (antibody, V domains shown)
VH: QVQLVQSGAEVKKPGASVKVSCKASGYTFTSYYMHWVRQAPGQGLEWMGIINPSDGSTRYVEKFQGRVTMTRDTSTSTVYMELSSLRSEDTAVYFCARGMGPGPHYHFYMDVWGKGTMVTVSS
VL: SSELTQDPAVSVALGQTVRITCQGDSLRSYYTNWFQQKPGQAPLLVVYAKNKRPSGIPDRFSGSSSGNTASLTITGAQAEDEADYYCHSRDSGGNHVLFGGGTKLTVL
B6: Antibody No. 5 (Ab-5) (antibody, V domains shown)
VH: QVQLVQSGAEVKKPGASVKVSCKASGYTFTGQYIHWVRQAPGQGLEWMGWISAYNGYTDYAQKVQGRVTMTTDTSTSTAYMELRSLRSDDTAVYYCAREVWPVAAADTFSVFDIWGRGTLVTVSS
VL: B5 VL with T32A, N33S, F35Y, L44V, V47I, A49G, K52N, H88N, G93S, L98V
B7: Antibody No. 8 (Ab-8) (antibody, V domains shown)
VH: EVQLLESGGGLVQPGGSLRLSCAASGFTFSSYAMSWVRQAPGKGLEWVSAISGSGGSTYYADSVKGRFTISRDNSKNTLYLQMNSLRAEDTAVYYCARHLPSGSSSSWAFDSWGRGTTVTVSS
VL: SYVLTQPPSASGTPGQRVTISCSGSSSNIGSNYVYWYQQLPGTAPKLLIYRNNQRPSGVPDRFSGSKSGTSASLAISGLQSEDEADYYCEAWDDNVDGPVFGGGTKLTVL
B8: Antibody No. 2 (Ab-2) (antibody, V domains shown)
VH: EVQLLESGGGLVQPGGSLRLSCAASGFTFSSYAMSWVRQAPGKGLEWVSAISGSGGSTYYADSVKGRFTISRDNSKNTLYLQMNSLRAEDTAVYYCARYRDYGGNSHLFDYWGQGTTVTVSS
VL: EIVMTQSPSSLPASVGDRVTITCRASQNIKTYLHWYQQKPGKAPNLLIYAASNLQIGVPSRFSGSGSGTDFTLTISSLQPEDFATYFCQQSYITPPTFGQGTRLEIK

target: T1, huCD148 on human endothelial cells …; test: cell-based or functional assay

Inhibiting human endothelial cell migration and/or inhibited angiogenesis in the corneal angiogenesis assay, ≥ 20%:
B1, B2, B3, B4, B5, B6, B7, B8

Source: patent publication US20090263383A1 (Amgen, published 2009)
